In article PMC5684140:

Biological target: JMJD8-FLAG-HA (HeLa-JMJD8-FLAG-HA) (human) (UniProt Q96S16)
Experiment: SEC; gel filtration (Superdex 200) of total cell lysate of HeLa S3 cells stably expressing JMJD8-FLAG-HA; fractions immunoblotted with anti-FLAG

JMJD8-FLAG-HA (HeLa-JMJD8-FLAG-HA) (from UniProt Q96S16-1 24-264) (natural protein)
stoichiometry N: 2
